Substitutions are numbered along the chain they refer to. In names and notes the source's numbering stands.
B1: Full-length myotilin with N-terminal thioredoxin tag (Trx-MYOT), Q9UBF9 1-498 (natural protein)
chain: MFNYERPKHFIQSQNPCGSRLQPPGPETSSFSSQTKQSSIIIQPRQCTEQRFSASSTLSSHITMSSSAFPASPQQHAGSNPGQRVTTTYNQSPASFLSSILPSQPDYNSSKIPSAMDSNYQQSSAGQPINAKPSQTANAKPIPRTPDHEIQGSKEALIQDLERKLKCKDTLLHNGNQRLTYEEKMARRLLGPQNAAAVFQAQDDSGAQDSQQHNSEHARLQVPTSQVRSRSTSRGDVNDQDAIQEKFYPPRFIQVPENMSIDEGRFCRMDFKVSGLPAPDVSWYLNGRTVQSDDLHKMIVSEKGLHSLIFEVVRASDAGAYACVAKNRAGEATFTVQLDVLAKEHKRAPMFIYKPQSKKVLEGDSVKLECQISAIPPPKLFWKRNNEMVQFNTDRISLYQDNTGRVTLLIKDVNKKDAGWYTVSAVNEAGVTTCNTRLDVTARPNQTLPAPKQLRVRPTFSKYLALNGKGLNVKQAFNPEGEFQRLAAQSGLYESEEL
B2: Myotilin Ig1Ig2^250–444 (Ig1Ig2 tandem), Q9UBF9 K359A (protein)
chain: PRFIQVPENMSIDEGRFCRMDFKVSGLPAPDVSWYLNGRTVQSDDLHKMIVSEKGLHSLIFEVVRASDAGAYACVAKNRAGEATFTVQLDVLAKEHKRAPMFIYKPQSKAVLEGDSVKLECQISAIPPPKLFWKRNNEMVQFNTDRISLYQDNTGRVTLLIKDVNKKDAGWYTVSAVNEAGVTTCNTRLDVTARP
B3: Myotilin Ig1Ig2^250–444 (Ig1Ig2 tandem), Q9UBF9 K354A; K359A (protein)
chain: B2 chain with K105A
B4: Myotilin Ig1Ig2^250–444 (Ig1Ig2 tandem), Q9UBF9 Q356A (protein)
chain: B2 chain with Q107A, A110K
B5: Myotilin Ig1Ig2^250–444 (Ig1Ig2 tandem), Q9UBF9 K411A (protein)
chain: B2 chain with A110K, K162A
B6: Myotilin Ig1Ig2^250–444 (Ig1Ig2 tandem), Q9UBF9 K354A (protein)
chain: B2 chain with K105A, A110K
B7: Myotilin Ig1Ig2^250–444 (Ig1Ig2 tandem), Q9UBF9 250-444 (domain or fragment)
chain: B2 chain with A110K
B8: Myotilin Ig1Ig2^250–444 (Ig1Ig2 tandem), Q9UBF9 K358A (protein)
chain: B2 chain with K109A, A110K
B9: Myotilin Ig1Ig2^250–444 (Ig1Ig2 tandem), Q9UBF9 K367A (protein)
chain: B2 chain with A110K, K118A
B10: Myotilin Ig1Ig2^250–444 (Ig1Ig2 tandem), Q9UBF9 R405K (protein)
chain: B2 chain with A110K, R156K

Assays:
[1] = target: T1, F-actin (rabbit skeletal muscle actin, polymerized) (rabbit), P68135; test: co-sedimentation; F-actin co-sedimentation, conditions B2 (PIPES pH 6.8, 100 mM NaCl); fixed 6 μM myotilin fragment in 20 μl mixed with pre-polymerized F-actin (0 to 60 μM) in 20 μl; one site-specific binding fit; apparent Kd; settings: remark: other sources report otherwise
[2] = target: F-actin (rabbit skeletal muscle actin, polymerized), P68135; test: F-actin co-sedimentation assay; settings: chain shown with the change; for response: 8 μM protein, percentage of theoretical total binding (100%), parent: est. 95, read off a plot
[3] = target: T1, F-actin (rabbit skeletal muscle actin, …); test: co-sedimentation; F-actin co-sedimentation, conditions B1 (HEPES pH 7.4); fixed 16 μM myotilin construct in 20 μl mixed with pre-polymerized F-actin (0–120 μM) in 20 μl; room temperature 30 min, 125,000 × g; densitometry, one site-specific binding fit; apparent Kd; settings: remark: other sources report otherwise

Binder	response [2] [% bound]	further results
B1	–	Kd [1]: 0.29 µM
B2	72	–
B3	42	–
B4	94	–
B5	87	–
B6	55	–
B7	–	Kd [1]: 12.9 µM; Kd [3]: 9.2 µM
B8	80	–
B9	87	–
B10	–	Kd ([2]; B1 conditions (asterisk)): 7.5 µM

Source: paper PMC8062120
